The series deals with thrombin (UniProt P00734;P00734 328-363;364-622). Briefly: electrochemical aptasensor (DPV); immobilized aptamer; signal suppression on thrombin binding; LOD 0.26 fM, range 1.0 fM to 1.0 uM (abstract), not a Kd; Thrombin incubation 40 min at ambient temperature, wash with PBS; DPV in 25 mM PBS pH 7.0, -0.1 to 0.5 V.

B1: TBA (thrombin aptamer) (ssDNA)
DNA: GGTTGGTGTGGTTGG
modifications: 5'-SH-(CH2)6
For the molecule B1, the binding result is recorded as “binds”.

These data come from publication PMC10216145.
